Data as given in the supplement of paper PMC10567573.

B1: DYRK1B (parent)
chain: KKVLNHGYDDDNHDYIVRSGERWL

Variants of: B1
Assay: protein stability index of a GFP-peptide fusion (GPS, HEK-293T) (PSI 1-6); higher = more stable
Details: c terminus: a fixed tail appended
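Also: lentivirally expressed fusions sorted by FACS into six bins by GFP to DsRed ratio, PSI derived from sequencing read proportions per bin multiplied by bin number.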

Variant | protein stability index
KKVLNHGYDDDNHDSIVRSGERWL [Y15S] | 3.32
KKVLNHGYDDDNHDCIVRSGERWL [Y15C] | 3.58
KKVLNHGYDDDNHDQIVRSGERWL [Y15Q] | 4.05
KKVLNHGYDDDNHDGIVRSGERWL [Y15G] | 3.82
KKVLNHGYDDDNHDWIVRSGERWL [Y15W] | 3.07
KKVLNHGYDDDNHDDIVRSGERWL [Y15D] | 4.19
KKVLNHGYDDDNHDVIVRSGERWL [Y15V] | 3.38
KKVLNHGYDDDNHDTIVRSGERWL [Y15T] | 2.95
KKVLNHGYDDDNHDKIVRSGERWL [Y15K] | 3.56
KKVLNHGYDDDNHDFIVRSGERWL [Y15F] | 3.09
KKVLNHGYDDDNHDMIVRSGERWL [Y15M] | 3.27
KKVLNHGYDDDNHDHIVRSGERWL [Y15H] | 3.42
KKVLNHGYDDDNHDPIVRSGERWL [Y15P] | 3.6
KKVLNHGYDDDNHDRIVRSGERWL [Y15R] | 3.72
KKVLNHGYDDDNHDAIVRSGERWL [Y15A] | 3.79
KKVLNHGYDDDNHDEIVRSGERWL [Y15E] | 4.02
KKVLNHGYDDDNHDLIVRSGERWL [Y15L] | 3.05
KKVLNHGYDDDNHDNIVRSGERWL [Y15N] | 3.88
KKVLNHGYDDDNHDIIVRSGERWL [Y15I] | 3.5
KKVLNHGYDDDNLDYIVRSGERWL [H13L] | 2.59
KKVLNHGYDDDNCDYIVRSGERWL [H13C] | 2.54
KKVLNHGYDDDNVDYIVRSGERWL [H13V] | 2.96
KKVLNHGYDDDNYDYIVRSGERWL [H13Y] | 2.64
KKVLNHGYDDDNGDYIVRSGERWL [H13G] | 3.27

Variant | protein stability index
KKVLNHGYDDDNMDYIVRSGERWL [H13M] | 2.58
KKVLNHGYDDDNWDYIVRSGERWL [H13W] | 2.44
KKVLNHGYDDDNRDYIVRSGERWL [H13R] | 3.77
KKVLNHGYDDDNKDYIVRSGERWL [H13K] | 3.59
KKVLNHGYDDDNEDYIVRSGERWL [H13E] | 4.24
KKVLNHGYDDDNDDYIVRSGERWL [H13D] | 3.73
KKVLNHGYDDDNPDYIVRSGERWL [H13P] | 3.57
KKVLNHGYDDDNSDYIVRSGERWL [H13S] | 3.42
KKVLNHGYDDDNTDYIVRSGERWL [H13T] | 3.35
KKVLNHGYDDDNADYIVRSGERWL [H13A] | 3.06
KKVLNHGYDDDNNDYIVRSGERWL [H13N] | 3.07
KKVLNHGYDDDNFDYIVRSGERWL [H13F] | 1.95
KKVLNHGYDDDNIDYIVRSGERWL [H13I] | 2.79
KKVLNHGYDDDNQDYIVRSGERWL [H13Q] | 3.68
KKVLNHGYMDDNHDYIVRSGERWL [D9M] | 2.83
KKVLNHGYEDDNHDYIVRSGERWL [D9E] | 3.96
KKVLNHGYTDDNHDYIVRSGERWL [D9T] | 2.75
KKVLNHGYWDDNHDYIVRSGERWL [D9W] | 1.53
KKVLNHGYCDDNHDYIVRSGERWL [D9C] | 2.96
KKVLNHGYFDDNHDYIVRSGERWL [D9F] | 2.61
KKVLNHGYLDDNHDYIVRSGERWL [D9L] | 2.39
KKVLNHGYSDDNHDYIVRSGERWL [D9S] | 2.34
KKVLNHGYKDDNHDYIVRSGERWL [D9K] | 2.87
KKVLNHGYYDDNHDYIVRSGERWL [D9Y] | 2.17

Variant | protein stability index
KKVLNHGYVDDNHDYIVRSGERWL [D9V] | 2.67
KKVLNHGYRDDNHDYIVRSGERWL [D9R] | 2.74
KKVLNHGYPDDNHDYIVRSGERWL [D9P] | 3.12
KKVLNHGYHDDNHDYIVRSGERWL [D9H] | 2.74
KKVLNHGYGDDNHDYIVRSGERWL [D9G] | 2.51
KKVLNHGYQDDNHDYIVRSGERWL [D9Q] | 2.94
KKVLNHGYADDNHDYIVRSGERWL [D9A] | 2.89
KKVLNHGYNDDNHDYIVRSGERWL [D9N] | 2.63
KKVLNHGYIDDNHDYIVRSGERWL [D9I] | 2.52
KKVLNHGYDDDSHDYIVRSGERWL [N12S] | 3.01
KKVLNHGYDDDCHDYIVRSGERWL [N12C] | 2.67
KKVLNHGYDDDTHDYIVRSGERWL [N12T] | 2.62
KKVLNHGYDDDKHDYIVRSGERWL [N12K] | 3.05
KKVLNHGYDDDHHDYIVRSGERWL [N12H] | 2.65
KKVLNHGYDDDEHDYIVRSGERWL [N12E] | 3.36
KKVLNHGYDDDWHDYIVRSGERWL [N12W] | 2.01
KKVLNHGYDDDLHDYIVRSGERWL [N12L] | 2.3
KKVLNHGYDDDPHDYIVRSGERWL [N12P] | 2.78
KKVLNHGYDDDQHDYIVRSGERWL [N12Q] | 3.48
KKVLNHGYDDDVHDYIVRSGERWL [N12V] | 2.64
KKVLNHGYDDDFHDYIVRSGERWL [N12F] | 2.35
KKVLNHGYDDDAHDYIVRSGERWL [N12A] | 2.7
KKVLNHGYDDDMHDYIVRSGERWL [N12M] | 2.29
KKVLNHGYDDDDHDYIVRSGERWL [N12D] | 3.4

Variant | protein stability index
KKVLNHGYDDDYHDYIVRSGERWL [N12Y] | 2.17
KKVLNHGYDDDRHDYIVRSGERWL [N12R] | 3.27
KKVLNHGYDDDIHDYIVRSGERWL [N12I] | 2.47
KKVLNHGYDDDGHDYIVRSGERWL [N12G] | 2.81
KKVLNHGYDDTNHDYIVRSGERWL [D11T] | 2.75
KKVLNHGYDDHNHDYIVRSGERWL [D11H] | 3.08
KKVLNHGYDDVNHDYIVRSGERWL [D11V] | 2.54
KKVLNHGYDDINHDYIVRSGERWL [D11I] | 2.5
KKVLNHGYDDNNHDYIVRSGERWL [D11N] | 2.89
KKVLNHGYDDCNHDYIVRSGERWL [D11C] | 2.55
KKVLNHGYDDANHDYIVRSGERWL [D11A] | 3.09
KKVLNHGYDDLNHDYIVRSGERWL [D11L] | 2.25
KKVLNHGYDDENHDYIVRSGERWL [D11E] | 3.18
KKVLNHGYDDSNHDYIVRSGERWL [D11S] | 3.03
KKVLNHGYDDRNHDYIVRSGERWL [D11R] | 2.37
KKVLNHGYDDFNHDYIVRSGERWL [D11F] | 2.15
KKVLNHGYDDQNHDYIVRSGERWL [D11Q] | 2.83
KKVLNHGYDDKNHDYIVRSGERWL [D11K] | 2.92
KKVLNHGYDDPNHDYIVRSGERWL [D11P] | 2.58
KKVLNHGYDDYNHDYIVRSGERWL [D11Y] | 2.48
KKVLNHGYDDGNHDYIVRSGERWL [D11G] | 2.85
KKVLNHGYDDMNHDYIVRSGERWL [D11M] | 2.59
